We go through 125 sequences from the supplement of paper PMC9112550, “Optimization of the antimicrobial peptide Bac7 by deep mutational scanning” (BMC Biology, 2022).

The data set concerns Escherichia coli TOP10. The data set is described as follows: shrunken log2 fold change of peptide-encoding DNA abundance (4.5 h post-induction vs induction); higher = less antimicrobial activity (less host growth inhibition). To be noted: time post-induction: 4.5 h; library: site-saturation at positions 5, 18, 19, 20.
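Further: peptides expressed intracellularly from a pBAD plasmid library in pooled LB shake-flask culture, induced with 0.3% L-arabinose, DNA abundance read by NGS, three biological replicates, DESeq2 with apeglm shrinkage.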

As to RRIRRRPPRLPRPRPRPMEYPRP, the “shrunken log2 fold change” value is -0.0405.

As for RRIRDRPPRLPRPRPRPGVGPRP, the “shrunken log2 fold change” value was found to be 0.519.

Consider RRIRIRPPRLPRPRPRPRSFPRP, for which the “shrunken log2 fold change” value was -0.0641.

For the sequence RRIRTRPPRLPRPRPRPQSWPRP, the “shrunken log2 fold change” value amounted to 0.234.

Consider RRIRCRPPRLPRPRPRPWLPPRP, for which the “shrunken log2 fold change” value is -0.122.

Regarding RRIRKRPPRLPRPRPRPYSDPRP, the “shrunken log2 fold change” value came out at 0.0075.

As for RRIRNRPPRLPRPRPRPSHCPRP, the “shrunken log2 fold change” value is -0.801.

Turning to RRIRHRPPRLPRPRPRPTWWPRP, the “shrunken log2 fold change” value was 0.368.

Take RRIRWRPPRLPRPRPRPTICPRP: the “shrunken log2 fold change” value is -0.106.

Consider RRIRYRPPRLPRPRPRPIMIPRP, for which the “shrunken log2 fold change” value is -0.0191.

For RRIRQRPPRLPRPRPRPEMDPRP, the “shrunken log2 fold change” value was found to be 0.231.

For the sequence RRIRWRPPRLPRPRPRPIEEPRP, the “shrunken log2 fold change” value came to 0.0406.

In the case of RRIRKRPPRLPRPRPRPKPYPRP, the “shrunken log2 fold change” value is 0.307.

Turning to RRIRGRPPRLPRPRPRPKYCPRP, the “shrunken log2 fold change” value worked out at 0.203.

Consider RRIRSRPPRLPRPRPRPRHGPRP, for which the “shrunken log2 fold change” value is 0.196.

Regarding RRIRQRPPRLPRPRPRPDCAPRP, the “shrunken log2 fold change” value was found to be 0.0476.

Take RRIRHRPPRLPRPRPRPPCYPRP: the “shrunken log2 fold change” value is -0.131.

Turning to RRIRFRPPRLPRPRPRPWCMPRP, the “shrunken log2 fold change” value was -0.214.

As for RRIRPRPPRLPRPRPRPVSQPRP, the “shrunken log2 fold change” value is -0.0764.

With RRIRKRPPRLPRPRPRPNMTPRP, the “shrunken log2 fold change” value was 0.0525.

On to RRIRFRPPRLPRPRPRPPSDPRP, for which the “shrunken log2 fold change” value was found to be 0.201.

For the sequence RRIRHRPPRLPRPRPRPGSLPRP, the “shrunken log2 fold change” value is 0.134.

Regarding RRIRARPPRLPRPRPRPDVVPRP, the “shrunken log2 fold change” value was -0.101.

For the sequence RRIRDRPPRLPRPRPRPAYRPRP, the “shrunken log2 fold change” value is -0.0687.

RRIRCRPPRLPRPRPRPQHNPRP: the “shrunken log2 fold change” value is -0.771.

Consider RRIRVRPPRLPRPRPRPQGKPRP, for which the “shrunken log2 fold change” value was determined as 0.00549.

As for RRIRSRPPRLPRPRPRPTKIPRP, the “shrunken log2 fold change” value was 0.00311.

On to RRIRLRPPRLPRPRPRPHQIPRP, for which the “shrunken log2 fold change” value is -0.249.

Consider RRIRFRPPRLPRPRPRPNIVPRP, for which the “shrunken log2 fold change” value was -0.199.

In the case of RRIRVRPPRLPRPRPRPHKSPRP, the “shrunken log2 fold change” value was 0.0325.

RRIRERPPRLPRPRPRPWTYPRP: the “shrunken log2 fold change” value is -0.104.

On to RRIRYRPPRLPRPRPRPYLAPRP, for which the “shrunken log2 fold change” value was -0.682.

In the case of RRIRPRPPRLPRPRPRPRPPPRP, the “shrunken log2 fold change” value was determined as 0.831.

With RRIRMRPPRLPRPRPRPHLRPRP, the “shrunken log2 fold change” value was determined as 0.0326.

Take RRIRDRPPRLPRPRPRPYKFPRP: the “shrunken log2 fold change” value is -0.223.

In the case of RRIRVRPPRLPRPRPRPSSHPRP, the “shrunken log2 fold change” value is -0.344.

On to RRIRLRPPRLPRPRPRPYAHPRP, for which the “shrunken log2 fold change” value was -0.0393.

For the sequence RRIRTRPPRLPRPRPRPEYNPRP, the “shrunken log2 fold change” value was -0.395.

Regarding RRIRPRPPRLPRPRPRPDAWPRP, the “shrunken log2 fold change” value was 0.513.

With RRIRTRPPRLPRPRPRPYKIPRP, the “shrunken log2 fold change” value was -0.15.

With RRIRERPPRLPRPRPRPFCNPRP, the “shrunken log2 fold change” value is -0.366.

RRIRRRPPRLPRPRPRPKHCPRP: the “shrunken log2 fold change” value was determined as 0.294.

For the sequence RRIRQRPPRLPRPRPRPEGYPRP, the “shrunken log2 fold change” value is -0.0294.

For RRIRTRPPRLPRPRPRPEMPPRP, the “shrunken log2 fold change” value was -0.0682.

Take RRIRERPPRLPRPRPRPMIGPRP: the “shrunken log2 fold change” value came out at 0.015.

In the case of RRIRVRPPRLPRPRPRPWAMPRP, the “shrunken log2 fold change” value is -0.0382.

For the sequence RRIRRRPPRLPRPRPRPWTHPRP, the “shrunken log2 fold change” value was 0.0267.

Turning to RRIRNRPPRLPRPRPRPWYDPRP, the “shrunken log2 fold change” value was -0.0695.

For RRIRNRPPRLPRPRPRPRRQPRP, the “shrunken log2 fold change” value was found to be 0.227.

In the case of RRIRHRPPRLPRPRPRPYVLPRP, the “shrunken log2 fold change” value was -0.14.

RRIRSRPPRLPRPRPRPIESPRP: the “shrunken log2 fold change” value was -0.385.

For RRIRCRPPRLPRPRPRPPFAPRP, the “shrunken log2 fold change” value stood at 0.455.

With RRIRPRPPRLPRPRPRPQENPRP, the “shrunken log2 fold change” value is -0.125.

On to RRIRQRPPRLPRPRPRPSQQPRP, for which the “shrunken log2 fold change” value turned out to be 0.0129.

RRIRDRPPRLPRPRPRPWCFPRP: the “shrunken log2 fold change” value was -0.0692.

In the case of RRIRCRPPRLPRPRPRPMEYPRP, the “shrunken log2 fold change” value was -0.17.

On to RRIRFRPPRLPRPRPRPPWIPRP, for which the “shrunken log2 fold change” value amounted to 0.3.

As to RRIRMRPPRLPRPRPRPNKNPRP, the “shrunken log2 fold change” value was 0.152.

As to RRIRHRPPRLPRPRPRPACEPRP, the “shrunken log2 fold change” value amounted to 0.0343.

RRIRRRPPRLPRPRPRPRNFPRP: the “shrunken log2 fold change” value came to 0.306.

As for RRIRHRPPRLPRPRPRPMRYPRP, the “shrunken log2 fold change” value is -0.0889.

As to RRIRSRPPRLPRPRPRPRIGPRP, the “shrunken log2 fold change” value came to 0.395.

In the case of RRIRDRPPRLPRPRPRPRERPRP, the “shrunken log2 fold change” value came out at 0.352.

With RRIRMRPPRLPRPRPRPWWDPRP, the “shrunken log2 fold change” value came to 0.142.

As to RRIRRRPPRLPRPRPRPNKCPRP, the “shrunken log2 fold change” value was -0.634.

Take RRIRVRPPRLPRPRPRPDHMPRP: the “shrunken log2 fold change” value was -0.384.

As to RRIRWRPPRLPRPRPRPYSCPRP, the “shrunken log2 fold change” value was -0.705.

Regarding RRIRARPPRLPRPRPRPEAAPRP, the “shrunken log2 fold change” value turned out to be 1.78.

As to RRIRIRPPRLPRPRPRPSAKPRP, the “shrunken log2 fold change” value is -0.0328.

In the case of RRIRARPPRLPRPRPRPVHSPRP, the “shrunken log2 fold change” value came out at 0.0799.

For RRIRKRPPRLPRPRPRPPGRPRP, the “shrunken log2 fold change” value turned out to be 2.07.

Regarding RRIRQRPPRLPRPRPRPHMYPRP, the “shrunken log2 fold change” value was -0.706.

In the case of RRIRVRPPRLPRPRPRPFGNPRP, the “shrunken log2 fold change” value came to 0.0432.

RRIRMRPPRLPRPRPRPFWWPRP: the “shrunken log2 fold change” value stood at 0.158.

Consider RRIRLRPPRLPRPRPRPIRSPRP, for which the “shrunken log2 fold change” value is -0.0199.

As for RRIRPRPPRLPRPRPRPDMFPRP, the “shrunken log2 fold change” value worked out at 2.58.

Regarding RRIRPRPPRLPRPRPRPHSPPRP, the “shrunken log2 fold change” value was -0.0589.

Consider RRIRWRPPRLPRPRPRPSPSPRP, for which the “shrunken log2 fold change” value turned out to be 0.375.

Take RRIRPRPPRLPRPRPRPHCMPRP: the “shrunken log2 fold change” value is -0.195.

Take RRIRRRPPRLPRPRPRPNPIPRP: the “shrunken log2 fold change” value was 0.208.

Turning to RRIRCRPPRLPRPRPRPRQEPRP, the “shrunken log2 fold change” value is 0.121.

With RRIRERPPRLPRPRPRPTWMPRP, the “shrunken log2 fold change” value came to 0.0534.

Regarding RRIRGRPPRLPRPRPRPISGPRP, the “shrunken log2 fold change” value stood at 0.000749.

Consider RRIRMRPPRLPRPRPRPMYNPRP, for which the “shrunken log2 fold change” value is -0.815.

Turning to RRIRHRPPRLPRPRPRPNFKPRP, the “shrunken log2 fold change” value was -0.189.

As for RRIRHRPPRLPRPRPRPFRPPRP, the “shrunken log2 fold change” value was -0.188.

For the sequence RRIRFRPPRLPRPRPRPDWCPRP, the “shrunken log2 fold change” value was -0.00301.

Turning to RRIRWRPPRLPRPRPRPFLFPRP, the “shrunken log2 fold change” value is 0.095.

In the case of RRIRVRPPRLPRPRPRPCFHPRP, the “shrunken log2 fold change” value was -0.395.

With RRIRWRPPRLPRPRPRPVDCPRP, the “shrunken log2 fold change” value came out at 0.00927.

In the case of RRIRVRPPRLPRPRPRPQICPRP, the “shrunken log2 fold change” value is -0.185.

For RRIRGRPPRLPRPRPRPSINPRP, the “shrunken log2 fold change” value is -0.0752.

Regarding RRIRSRPPRLPRPRPRPLWMPRP, the “shrunken log2 fold change” value was -0.0686.

Take RRIRFRPPRLPRPRPRPWSKPRP: the “shrunken log2 fold change” value is -0.079.

On to RRIRFRPPRLPRPRPRPRIHPRP, for which the “shrunken log2 fold change” value is -0.262.

With RRIRSRPPRLPRPRPRPCVAPRP, the “shrunken log2 fold change” value worked out at 0.0901.

Consider RRIRVRPPRLPRPRPRPWQKPRP, for which the “shrunken log2 fold change” value was 0.015.

RRIRWRPPRLPRPRPRPHHAPRP: the “shrunken log2 fold change” value is -0.0735.

With RRIRARPPRLPRPRPRPTWEPRP, the “shrunken log2 fold change” value worked out at 1.02.

In the case of RRIRARPPRLPRPRPRPEILPRP, the “shrunken log2 fold change” value is 0.74.

Take RRIRERPPRLPRPRPRPDHLPRP: the “shrunken log2 fold change” value was -0.223.

RRIRERPPRLPRPRPRPMSCPRP: the “shrunken log2 fold change” value is -0.206.

With RRIRYRPPRLPRPRPRPFAAPRP, the “shrunken log2 fold change” value was -0.508.

With RRIRERPPRLPRPRPRPTNKPRP, the “shrunken log2 fold change” value was -0.533.

RRIRMRPPRLPRPRPRPDRWPRP: the “shrunken log2 fold change” value worked out at 0.926.

Regarding RRIRIRPPRLPRPRPRPPALPRP, the “shrunken log2 fold change” value came out at 0.0147.

RRIRARPPRLPRPRPRPMYAPRP: the “shrunken log2 fold change” value came to 0.207.

For the sequence RRIRRRPPRLPRPRPRPCTFPRP, the “shrunken log2 fold change” value is -0.262.

In the case of RRIRDRPPRLPRPRPRPLHNPRP, the “shrunken log2 fold change” value was -0.338.

As to RRIRSRPPRLPRPRPRPGFPPRP, the “shrunken log2 fold change” value is -0.00277.

As to RRIRIRPPRLPRPRPRPRCLPRP, the “shrunken log2 fold change” value was -0.228.

With RRIRQRPPRLPRPRPRPGWAPRP, the “shrunken log2 fold change” value is 0.113.

RRIRGRPPRLPRPRPRPLRAPRP: the “shrunken log2 fold change” value was found to be 1.72.

Turning to RRIRTRPPRLPRPRPRPFPAPRP, the “shrunken log2 fold change” value is 0.299.

As to RRIRSRPPRLPRPRPRPMWPPRP, the “shrunken log2 fold change” value turned out to be 0.447.

Consider RRIRGRPPRLPRPRPRPSYEPRP, for which the “shrunken log2 fold change” value amounted to 0.0732.

Regarding RRIRYRPPRLPRPRPRPVVIPRP, the “shrunken log2 fold change” value is -0.868.

For RRIRTRPPRLPRPRPRPTYIPRP, the “shrunken log2 fold change” value is -0.603.

RRIRTRPPRLPRPRPRPSFEPRP: the “shrunken log2 fold change” value was -0.328.

Consider RRIRYRPPRLPRPRPRPINHPRP, for which the “shrunken log2 fold change” value was -0.675.

For the sequence RRIRFRPPRLPRPRPRPSKTPRP, the “shrunken log2 fold change” value was found to be 0.0514.

On to RRIRERPPRLPRPRPRPHCIPRP, for which the “shrunken log2 fold change” value was -0.000243.

As for RRIRLRPPRLPRPRPRPMDIPRP, the “shrunken log2 fold change” value is -0.568.

On to RRIRVRPPRLPRPRPRPYFEPRP, for which the “shrunken log2 fold change” value was -0.26.

Regarding RRIRARPPRLPRPRPRPPNIPRP, the “shrunken log2 fold change” value was 0.0251.
